According to article PMC4705663:
One block for each substance: values may come before it.

Tests used:
[1] = test system: LexA; assay: FRET; conditions: LexA titration; S1/2 of nucleosome unwrapping, 75 mM NaCl; HI-FI FRET: 25 mM Tris pH 7.5, 200 mM NaCl, 0.01% NP40 and CHAPS; EMSA: 25 mM Tris-HCl pH 7.5, 150 mM NaCl, 5 mM DTT, +/-10% glycerol, RT 30 min; NMR: 25 mM …
[2] = test system: BRPF1 PZP domain; assay: FRET; conditions: with LexA fixed at its S1/2 (2 uM); HI-FI FRET: 25 mM Tris pH 7.5, 200 mM NaCl, 0.01% NP40 and CHAPS; EMSA: 25 mM Tris-HCl pH 7.5, 150 mM NaCl, 5 mM DTT, +/-10% glycerol, RT 30 min; NMR: 25 mM …
[3] = target: Oregon Green 488-labeled BRPF1 PZP domain (UniProt P55201); assay: FRET or BRET; HIFI-FRET titration; Atto647N-labeled mononucleosomes titrated against three concentrations of Oregon Green labeled PZP; 25 mM Tris 7.5, 200 mM NaCl, 0.01% NP40 and CHAPS; quadratic fit; apparent Kd
[4] = target: histone H3 tail H3 tail (Homo sapiens) (UniProt P68431); conditions: cited from earlier work
[5] = target: NCP165, mononucleosome assembled with unlabeled Xenopus octamer on 165 bp 601 DNA (Xenopus); assay: AUC; sedimentation velocity; unlabeled NCP165 incubated with increasing molar ratios of PZP overnight at 4°C; 20 mM Tris 7.5, 50 mM NaCl, 2 mM arginine; 20°C, 40 000 rpm; free components also run alone
[6] = test system: BRPF1 PZP domain; assay: HI-FI FRET; conditions: 200 mM NaCl, HI-FI FRET: 25 mM Tris pH 7.5, 200 mM NaCl, 0.01% NP40 and CHAPS, EMSA: 25 mM Tris-HCl pH 7.5, 150 mM NaCl, 5 mM DTT, +/-10% glycerol, RT 30 min, NMR: 25 mM …
[7] = target: Atto647N-labeled NCP165 (Xenopus octamer labeled at H4E63C, 165 bp 601 DNA) (Xenopus); assay: FRET or BRET; HIFI-FRET Job plot (continuous variation); Oregon Green 488-PZP donor and Atto647N-NCP165 acceptor; total concentration of reactants constant at 1 μM, 50 nM steps

Substance: 601L Cy3-Cy5 NCP with LexA site
K half [1]: 2000 nM
K half [2]: 4 µM

Substance: Atto647N-labeled NCP147 (Xenopus octamer labeled at H4E63C, 147 bp 601 DNA) (complex)
Kd [3]: > 1000 nM

Substance: BRPF1 PZP PZP (from UniProt P55201)
Kd [4]: 12000 nM

Substance: NCP147 (FRET)
Kd ([6]; apparent, curve did not plateau): > 1000 nM

Substance: NCP165
Kd ([6]; apparent Kd): 273 nM

Further lines, results first:

Kd [3]: 273 nM
Substance: Atto647N-labeled NCP165 (Xenopus octamer labeled at H4E63C, 165 bp 601 DNA) (complex)

stoichiometry N [5]: 2
Substance: BRPF1 PZP domain (amino acids 267–454) (from UniProt P55201 267-454) (domain or fragment)

stoichiometry N [7]: 1.8
Substance: Oregon Green 488-labeled BRPF1 PZP domain (from UniProt P55201 267-454) (domain or fragment)
